Measured values as given in the Human Domainome abundance scans (Beltran et al. 2025).
± gives the uncertainty stated by the source.

B1: SWI/SNF complex subunit SMARCC2, residues 599 to 641; numbered along this chain, Q8TAQ2 (parent)
chain: REWTEQETLLLLEALEMYKDDWNKVSEHVGSRTQDECILHFLR

Variants of: B1
Test: abundance fitness (aPCA) (normalised: wild type 0, dead -1); higher = more abundant; growth selection in yeast, the domain comes from the species named
Conditions: Homo sapiens

In order of rising abundance fitness:
1. REWTEQETLLLLEWLEMYKDDWNKVSEHVGSRTQDECILHFLR [A14W]  -1.39 ± 0.24
2. REWTEQETLLLLEVLEMYKDDWNKVSEHVGSRTQDECILHFLR [A14V]  -1.08 ± 0.17
3. REWTEQETLLLLEMLEMYKDDWNKVSEHVGSRTQDECILHFLR [A14M]  -0.991 ± 0.17
4. REWTEQETLLLLEPLEMYKDDWNKVSEHVGSRTQDECILHFLR [A14P]  -0.987 ± 0.21
5. REWTEQETLLLLEALEMYKDPWNKVSEHVGSRTQDECILHFLR [D21P]  -0.919 ± 0.16
6. REWTEQETLLLLETLEMYKDDWNKVSEHVGSRTQDECILHFLR [A14T]  -0.864 ± 0.16
7. REWTEQETLLLLEKLEMYKDDWNKVSEHVGSRTQDECILHFLR [A14K]  -0.844 ± 0.14
8. REWTEQETLLLLEQLEMYKDDWNKVSEHVGSRTQDECILHFLR [A14Q]  -0.797 ± 0.27
9. REWTEQETLLLLELLEMYKDDWNKVSEHVGSRTQDECILHFLR [A14L]  -0.778 ± 0.084
10. REWTEQETLLLLEALEMYKIDWNKVSEHVGSRTQDECILHFLR [D20I]  -0.777 ± 0.4
11. REWTEQETLLLLEALEMYKDMWNKVSEHVGSRTQDECILHFLR [D21M]  -0.747 ± 0.3
12. REWTEQETLLLLERLEMYKDDWNKVSEHVGSRTQDECILHFLR [A14R]  -0.741 ± 0.094
13. REWTEQETLLLLENLEMYKDDWNKVSEHVGSRTQDECILHFLR [A14N]  -0.57 ± 0.28
14. REWTEQETLLLLEALEMYWDDWNKVSEHVGSRTQDECILHFLR [K19W]  -0.526 ± 0.11
15. REWTEQETLLLLEALEMYLDDWNKVSEHVGSRTQDECILHFLR [K19L]  -0.458 ± 0.065
16. REWTEQETLLLLEALEMYKLDWNKVSEHVGSRTQDECILHFLR [D20L]  -0.448 ± 0.075
17. REWTEQETLLLLEALEMYYDDWNKVSEHVGSRTQDECILHFLR [K19Y]  -0.427 ± 0.15
18. REWTEQETLLLLEALEMYKTDWNKVSEHVGSRTQDECILHFLR [D20T]  -0.412 ± 0.12
19. REWTEQETLLLLEALEMYKDHWNKVSEHVGSRTQDECILHFLR [D21H]  -0.408 ± 0.084
20. REWTEQETLLLLEALEMYKMDWNKVSEHVGSRTQDECILHFLR [D20M]  -0.361 ± 0.36
21. REWTEQETLLLLEALEMYKFDWNKVSEHVGSRTQDECILHFLR [D20F]  -0.357 ± 0.12
22. REWTEQETLLLLEALEMYMDDWNKVSEHVGSRTQDECILHFLR [K19M]  -0.332 ± 0.38
23. REWTEQETLLLLEALEMYKDGWNKVSEHVGSRTQDECILHFLR [D21G]  -0.315 ± 0.1
24. REWTEQETLLLLEALEMYCDDWNKVSEHVGSRTQDECILHFLR [K19C]  -0.314 ± 0.073
25. REWTEQETLLLLEALEMYKDNWNKVSEHVGSRTQDECILHFLR [D21N]  -0.314 ± 0.43
26. REWTEQETLLLLEALEMYIDDWNKVSEHVGSRTQDECILHFLR [K19I]  -0.303 ± 0.1
27. REWTEQETLLLLEALEMYSDDWNKVSEHVGSRTQDECILHFLR [K19S]  -0.287 ± 0.065
28. REWTEQETLLLLEALEMYHDDWNKVSEHVGSRTQDECILHFLR [K19H]  -0.272 ± 0.074
29. REWTEQETLLLLEALEMYADDWNKVSEHVGSRTQDECILHFLR [K19A]  -0.26 ± 0.074
30. REWTEQETLLLLEALEMYVDDWNKVSEHVGSRTQDECILHFLR [K19V]  -0.256 ± 0.058
31. REWTEQETLLLLEALEMYKWDWNKVSEHVGSRTQDECILHFLR [D20W]  -0.237 ± 0.076
32. REWTEQETLLLLEALEMYGDDWNKVSEHVGSRTQDECILHFLR [K19G]  -0.235 ± 0.06
33. REWTEQETLLLLEAFEMYKDDWNKVSEHVGSRTQDECILHFLR [L15F]  -0.211 ± 0.36
34. REWTEQETLLLLEALEMYKDRWNKVSEHVGSRTQDECILHFLR [D21R]  -0.192 ± 0.077
35. REWTEQETLLLLEALEMYKADWNKVSEHVGSRTQDECILHFLR [D20A]  -0.181 ± 0.071
36. REWTEQETLLLLESLEMYKDDWNKVSEHVGSRTQDECILHFLR [A14S]  -0.181 ± 0.067
37. REWTEQETLLLLEALEMYKDAWNKVSEHVGSRTQDECILHFLR [D21A]  -0.172 ± 0.095
38. REWTEQETLLLLEALEMYKDEWNKVSEHVGSRTQDECILHFLR [D21E]  -0.158 ± 0.071
39. REWTEQETLLLLEALEMYFDDWNKVSEHVGSRTQDECILHFLR [K19F]  -0.151 ± 0.11
40. REWTEQETLLLLEALEMYKCDWNKVSEHVGSRTQDECILHFLR [D20C]  -0.15 ± 0.078
41. REWTEQETLLLLEALEMYDDDWNKVSEHVGSRTQDECILHFLR [K19D]  -0.143 ± 0.079
42. REWTEQETLLLLEALEMYKDQWNKVSEHVGSRTQDECILHFLR [D21Q]  -0.122 ± 0.086
43. REWTEQETLLLLEALEMYRDDWNKVSEHVGSRTQDECILHFLR [K19R]  -0.115 ± 0.069
44. REWTEQETLLLLEALEMYKYDWNKVSEHVGSRTQDECILHFLR [D20Y]  -0.072 ± 0.3
45. REWTEQETLLLLEALEMYKDKWNKVSEHVGSRTQDECILHFLR [D21K]  -0.065 ± 0.18
46. REWTEQETLLLLEALEMYKDSWNKVSEHVGSRTQDECILHFLR [D21S]  -0.057 ± 0.064
47. REWTEQETLLLLEALEMYPDDWNKVSEHVGSRTQDECILHFLR [K19P]  -0.052 ± 0.074
48. REWTEQETLLLLEALEMYKNDWNKVSEHVGSRTQDECILHFLR [D20N]  -0.031 ± 0.13
49. REWTEQETLLLLEALEMYTDDWNKVSEHVGSRTQDECILHFLR [K19T]  -0.003 ± 0.083
50. REWTEQETLLLLEALEMYKGDWNKVSEHVGSRTQDECILHFLR [D20G]  0.005 ± 0.064
51. REWTEQETLLLLEALEMYEDDWNKVSEHVGSRTQDECILHFLR [K19E]  0.019 ± 0.091
52. REWTEQETLLLLEALEMYKSDWNKVSEHVGSRTQDECILHFLR [D20S]  0.027 ± 0.088
53. REWTEQETLLLLEALEMYKKDWNKVSEHVGSRTQDECILHFLR [D20K]  0.054 ± 0.11
54. REWTEQETLLLLEALEMYKPDWNKVSEHVGSRTQDECILHFLR [D20P]  0.055 ± 0.088
55. REWTEQETLLLLEALEMYKQDWNKVSEHVGSRTQDECILHFLR [D20Q]  0.244 ± 0.062
56. REWTEQETLLLLEALEMYKRDWNKVSEHVGSRTQDECILHFLR [D20R]  0.289 ± 0.061
57. REWTEQETLLLLEALEMYNDDWNKVSEHVGSRTQDECILHFLR [K19N]  0.29 ± 0.14
58. REWTEQETLLLLEAVEMYKDDWNKVSEHVGSRTQDECILHFLR [L15V]  0.336 ± 0.064
59. REWTEQETLLLLEAREMYKDDWNKVSEHVGSRTQDECILHFLR [L15R]  0.454 ± 0.06
